According to article PMC2186984:

Target: cell-bound C4b (on EAC4 or EAC14 cells) (human) (UniProt P0C0L4)
Experiment: radioligand binding

maximum percent of bound 125I-C4-bp released by C2 [%]	Ka [M⁻¹]	percent of 125I-C4-bp incorporated into the cells [%]	percent of bound C4-bp released in the absence of C2 [%]	stoichiometry N (C4-bp molecules bound per C4b molecule)	Binder
50	–	–	–	–	C2 (natural protein) APSCPQNVNISGGTFTLSHGWAPGSLLTYSCPQGLYPSPASRLCKSSGQWQTPGATRSLSKAVCKPVRCPAPVSFENGIYTPRLGSYPVGGNVSFECEDGFILRGSPVRQCRPNGMWDGETAVCDNGAGHCPNPGISLGAVRTGFRFGHGDKVRYRCSSNLVLTGSSERECQGNGVWSGTEPICRQPYSYDFPEDVAPALGTSFSHMLGATNPTQKTKESLGRKIQIQRSGHLNLYLLLDCSQSVSENDFLIFKESASLMVDRIFSFEINVSVAIITFASEPKVLMSVLNDNSRDMTEVISSLENANYKDHENGTGTNTYAALNSVYLMMNNQMRLLGMETMAWQEIRHAIILLTDGKSNMGGSPKTAVDHIREILNINQKRNDYLDIYAIGVGKLDVDWRELNELGSKKDGERHAFILQDTKALHQVFEHMLDVSKLTDTICGVGNMSANASDQERTPWHVTIKPKSQETCRGALISDQWVLTAAHCFRDGNDHSLWRVNVGDPKSQWGKEFLIEKAVISPGFDVFAKKNQGILEFYGDDIALLKLAQKVKMSTHARPICLPCTMEANLALRRPQGSTCRDHENELLNKQSVPAHFVALNGSKLNINLKMGVEWTSCAEVVSQEKTMFPNLTDVREVVTDQFLCSGTQEDESPCKGESGGAVFLERRFRFFQVGLVSWGLYNPCLGSADKNSRKRAPRSKVPPPRDFHINLFRMQPWLRQHLGDVLNFLPL
–	4.6e+08	10.5	8	0.43	radiolabelled C4-binding protein (125I-C4-bp or 131I-C4-bp) (natural protein, 125I or 131I label (iodinated by means of Enzymobeads)) NCGPPPTLSFAAPMDITLTETRFKTGTTLKYTCLPGYVRSHSTQTLTCNSDGEWVYNTFCIYKRCRHPGELRNGQVEIKTDLSFGSQIEFSCSEGFFLIGSTTSRCEVQDRGVGWSHPLPQCEIVKCKPPPDIRNGRHSGEENFYAYGFSVTYSCDPRFSLLGHASISCTVENETIGVWRPSPPTCEKITCRKPDVSHGEMVSGFGPIYNYKDTIVFKCQKGFVLRGSSVIHCDADSKWNPSPPACEPNSCINLPDIPHASWETYPRPTKEDVYVVGTVLRYRCHPGYKPTTDEPTTVICQKNLRWTPYQGCEALCCPEPKLNNGEITQHRKSRPANHCVYFYGDEISFSCHETSRFSAICQGDGTWSPRTPSCGDICNFPPKIAHGHYKQSSSYSFFKEEIIYECDKGYILVGQAKLSCSYSHWSAPAPQCKALCRKPELVNGRLSVDKDQYVEPENVTIQCDSGYGVVGPQSITCSGNRTWYPEVPKCEWETPEGCEQVLTGKRLMQCLPNPEDVKMALEVYKLSLEIEQLELQRDSARQSTLDKEL
